According to paper PMC4231051, “Protein Thermal Stability Enhancement by Designing Salt Bridges: A Combined Computational and Experimental Study” (PLoS ONE, 2014):
Changes are numbered by the printed parent chain. Names and notes keep the numbering of the source.

B1: β-glucosidase A (BglA) from Bacillus polymyxa, wild type (enzyme)
chain: TIFQFPQDFMWGTATAAYQIEGAYQEDGRGLSIWDTFAHTPGKVFNGDNGNVACDSYHRYEEDIRLMKELGIRTYRFSVSWPRIFPNGDGEVNQEGLDYYHRVVDLLNDNGIEPFCTLYHWDLPQALQDAGGWGNRRTIQAFVQFAETMFREFHGKIQHWLTFNEPWCIAFLSNMLGVHAPGLTNLQTAIDVGHHLLVAHGLSVRRFRELGTSGQIGIAPNVSWAVPYSTSEEDKAACARTISLHSDWFLQPIYQGSYPQFLVDWFAEQGATVPIQDGDMDIIGEPIDMIGINYYSMSVNRFNPEAGFLQSEEINMGLPVTDIGWPVESRGLYEVLHYLQKYGNIDIYITENGACINDEVVNGKVQDDRRISYMQQHLVQVHRTIHDGLHVKGYMAWSLLDNFEWAEGYNMRFGMIHVDFRTQVRTPKESYYWYRNVVSNNWLETRR
notes: β-glucosidase A (BglA, EC 3.2.1.21) from Bacillus polymyxa, family 1 glycosyl hydrolase; Plasmid pBglA; its vector and construct limits are not described; also called wild type enzyme; source: E. coli BL21 Star (DE3), purified (HisTrap, thrombin, HisTrap, gel filtration on Superdex 200)
B2: β-glucosidase A (BglA) from Bacillus polymyxa, N437D mutant (enzyme)
chain: B1 chain with N436D
notes: β-glucosidase A (BglA, EC 3.2.1.21) from Bacillus polymyxa with N437D, made by site-directed mutagenesis of pBglA; Same construct as m1 apart from the mutation; source: E. coli BL21 Star (DE3), purified (HisTrap, thrombin, HisTrap, gel filtration on Superdex 200)
B3: β-glucosidase A (BglA) from Bacillus polymyxa, N437E mutant (enzyme)
chain: B1 chain with N436E
notes: β-glucosidase A (BglA, EC 3.2.1.21) from Bacillus polymyxa with N437E, made by site-directed mutagenesis of pBglA; Same construct as m1 apart from the mutation; source: E. coli BL21 Star (DE3), purified (HisTrap, thrombin, HisTrap, gel filtration on Superdex 200)

Biological target: the molecule itself
Test: SEC; gel filtration during purification (HiLoad 26/60 Superdex 200 prep-grade), 50 mM citrate phosphate buffer, pH 7; data not shown

Protein	stoichiometry N
B1	8
B2	4
B3	4
